B1: FAM189A2 (parent)
chain: NLAGFILGCQGAQFVSSVPRCDLV
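Note: lentivirally expressed fusions sorted by FACS into six bins by GFP to DsRed ratio, PSI derived from sequencing read proportions per bin multiplied by bin number.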

This data set covers variants of B1. As to the kind of experiment: protein stability index of a GFP-peptide fusion (GPS, HEK-293T) (PSI 1-6); higher = more stable. To be noted: c terminus: a fixed tail appended.
Take NLAGFILGCQGAQFVSSVPRCDGV [L23G]: the protein stability index is 1.28.
As for NLAGFILGCQGAQFVSSVPRCDSV [L23S], the figure is 1.93; as for NLAGFILGCQGAQFVSSVPRCDPV [L23P], 2.98; as for NLAGFILGCQGAQFVSSVPRCDDV [L23D], 2.45.
Then NLAGFILGCQGAQFVSSVPRCDIV [L23I], with 2.33.
Regarding NLAGFILGCQGAQFVSSVPRCDKV [L23K], the protein stability index turned out to be 1.94.
As for NLAGFILGCQGAQFVDSVPRCDLV [S16D], the figure is 1.04.
Then NLAGFILGCQGAQFVRSVPRCDLV [S16R], with 2.89.
Take NLAGFILGCQGAQFVTSVPRCDLV [S16T]: the protein stability index was 2.23.
As to NLAGFILGCQGAQFVLSVPRCDLV [S16L], the protein stability index was found to be 2.34.
NLAGFILGCQGAQFVCSVPRCDLV [S16C]: the protein stability index is 2.58.
As for NLAGFILGCQGAQFVKSVPRCDLV [S16K], the protein stability index is 3.56.
Then NLAGFILGCQGAQFVGSVPRCDLV [S16G], with 3.41; and NLAGFILGCQGAQFVHSVPRCDLV [S16H], with 1.8.
As for NLAGFILGCQGAFFVSSVPRCDLV [Q13F], the figure is 3; as for NLAGFILGCQGACFVSSVPRCDLV [Q13C], 2.76.
Then NLAGFILGCQGANFVSSVPRCDLV [Q13N], with 2.93; and NLAGFILGCQGAYFVSSVPRCDLV [Q13Y], with 3.26; and NLAGFILGCQGAVFVSSVPRCDLV [Q13V], with 2.53.
Take NLAGFILGCQGAMFVSSVPRCDLV [Q13M]: the protein stability index was found to be 2.01.
Then NLAGFILGCQGAQVVSSVPRCDLV [F14V], with 2.29.
NLAGFILGCQGAQQVSSVPRCDLV [F14Q]: the protein stability index was 1.92.
As for NLAGFILGCQGAQYVSSVPRCDLV [F14Y], the figure is 2.9; as for NLAGFILGCQGAQKVSSVPRCDLV [F14K], 1.16.
With NLAGFILGCQGAQEVSSVPRCDLV [F14E], the protein stability index came to 1.34.
Then NLAGFILGCQGAQPVSSVPRCDLV [F14P], with 2.4; and NLAGFILGCQGAQWVSSVPRCDLV [F14W], with 2.78; and NLAGFILGCQGAQNVSSVPRCDLV [F14N], with 1.72.
Consider NLAGFILGCQGAQHVSSVPRCDLV [F14H], for which the protein stability index came to 1.87.
Then NRAGFILGCQGAQFVSSVPRCDLV [L2R], with 1.87.
Take NWAGFILGCQGAQFVSSVPRCDLV [L2W]: the protein stability index is 1.35.
Then NDAGFILGCQGAQFVSSVPRCDLV [L2D], with 3.18.
As for NNAGFILGCQGAQFVSSVPRCDLV [L2N], the figure is 1.97.
As for NEAGFILGCQGAQFVSSVPRCDLV [L2E], the protein stability index stood at 2.13.
Take NSAGFILGCQGAQFVSSVPRCDLV [L2S]: the protein stability index is 1.55.
For NTAGFILGCQGAQFVSSVPRCDLV [L2T], the protein stability index came to 1.76.
Take NPAGFILGCQGAQFVSSVPRCDLV [L2P]: the protein stability index was determined as 1.26.
On to NGAGFILGCQGAQFVSSVPRCDLV [L2G], for which the protein stability index came out at 1.23.
As for NHAGFILGCQGAQFVSSVPRCDLV [L2H], the protein stability index worked out at 1.7.
Then NYAGFILGCQGAQFVSSVPRCDLV [L2Y], with 2.72; and NLAGFILGCQGAQFVSSVPRFDLV [C21F], with 2.92; and NLAGFILGCQGAQFVSSVPRDDLV [C21D], with 2.33.
Take NLAGFILGCQGAQFVSSVPRMDLV [C21M]: the protein stability index worked out at 2.81.
For NLAGFILGCQGAQFVSSVPRSDLV [C21S], the protein stability index stood at 1.68.
For the variant NLAGFILGCQGAQFVSSVPRHDLV [C21H], the protein stability index came out at 2.54.
Then NLAGFILGCQGAQFVSSVPRRDLV [C21R], with 1.64; and NLAGFILGDQGAQFVSSVPRCDLV [C9D], with 1.38.
For NLAGFILGVQGAQFVSSVPRCDLV [C9V], the protein stability index worked out at 2.04.
As for NLAGFILGRQGAQFVSSVPRCDLV [C9R], the figure is 1.23; as for NLAGFILGGQGAQFVSSVPRCDLV [C9G], 2.35.
Then NLAGFILGLQGAQFVSSVPRCDLV [C9L], with 1.76; and NLAGFILGSQGAQFVSSVPRCDLV [C9S], with 2.71; and NLAGFILGHQGAQFVSSVPRCDLV [C9H], with 3.12.
As for NLAGFILGFQGAQFVSSVPRCDLV [C9F], the figure is 2.36; as for NLAGFILGCQGAQFVSSVNRCDLV [P19N], 3.15; as for NLAGFILGCQGAQFVSSVMRCDLV [P19M], 1.45.
In the case of NLAGFILGCQGAQFVSSVFRCDLV [P19F], the protein stability index is 3.04.
With NLAGFILGCQGAQFVSSVRRCDLV [P19R], the protein stability index is 2.56.
On to NLAGFILGCQGAQFVSSVARCDLV [P19A], for which the protein stability index is 3.01.
Then NLAGFILGCQGAQFVSSVQRCDLV [P19Q], with 2.65; and NLAGFILGCQGAQFVSSVHRCDLV [P19H], with 3.01; and NLAGFILGCQGAQFVSSVPGCDLV [R20G], with 3.08.
Regarding NLAGFILGCQGAQFVSSVPQCDLV [R20Q], the protein stability index stood at 1.45.
With NLAGFILGCQGAQFVSSVPFCDLV [R20F], the protein stability index came out at 2.19.
Then NLAGFILGCQGAQFVSSVPMCDLV [R20M], with 2.91; and NLAGFILGCQGAQFVSSVPDCDLV [R20D], with 3.39; and NLAGFILGCQGAQFVSSVPYCDLV [R20Y], with 1.75.
As for NLAGFILGCQGAQFVSSVPKCDLV [R20K], the figure is 2.1; as for NLAGFILGCQGAQFVSDVPRCDLV [S17D], 1.72; as for NLAGFILGCQGAQFVSMVPRCDLV [S17M], 1.47.
Consider NLAGFILGCQGAQFVSSVPRCMLV [D22M], for which the protein stability index is 2.78.
As for NLAGFILGCQGAQFVSSVPRCNLV [D22N], the figure is 3.21; as for NLAGFILGCQGAQFVSSVPRCFLV [D22F], 2.58; as for NLAGFILGCQGAQFVSSVPRCILV [D22I], 2.13.
Then NLAGFILGCQGAQFVSSVPRCELV [D22E], with 1.18.
Take NLAGFILGCQGAQFVSSVPRCVLV [D22V]: the protein stability index stood at 2.39.
Regarding NLAGFILGCQGAQFVSSVPRCPLV [D22P], the protein stability index was 3.08.
As for NLAGFILGCQGAQFVSSVPRCKLV [D22K], the figure is 2.59; as for NLAGFILGCQGAQFVSSVPRCCLV [D22C], 2.27; as for NLAGFQLGCQGAQFVSSVPRCDLV [I6Q], 1.94.
Then NLAGFWLGCQGAQFVSSVPRCDLV [I6W], with 1.76; and NLAGFSLGCQGAQFVSSVPRCDLV [I6S], with 1.98.
Then NLAGFELGCQGAQFVSSVPRCDLV [I6E], with 1.49; and NLAGFCLGCQGAQFVSSVPRCDLV [I6C], with 2.3; and NLAGFVLGCQGAQFVSSVPRCDLV [I6V], with 2.18.
Take NLAGFRLGCQGAQFVSSVPRCDLV [I6R]: the protein stability index was 1.78.
As for NLAGFTLGCQGAQFVSSVPRCDLV [I6T], the figure is 1.66.
In the case of NLAGFGLGCQGAQFVSSVPRCDLV [I6G], the protein stability index was 1.79.
As for NLAGFPLGCQGAQFVSSVPRCDLV [I6P], the figure is 1.6; as for NLAGFFLGCQGAQFVSSVPRCDLV [I6F], 2.78.
Then NLAGFILGCQNAQFVSSVPRCDLV [G11N], with 3.08; and NLAGFILGCQRAQFVSSVPRCDLV [G11R], with 5.06.
For the variant NLAGFILGCQLAQFVSSVPRCDLV [G11L], the protein stability index was found to be 3.39.
Then NLAGFILGCQDAQFVSSVPRCDLV [G11D], with 2.76.
